Test results from a protein production outcome set (Wang et al. 2014).

experiment: label from the status in PepcDB records

Sequence	protein production
MRKKGNKLIEFVSKIMALVMAVTLLSSLPVQNVLANDSKETKGEEYEIYPIPQSIKYDNGTVTLGTDANVVFEEGIDEATKNRLLEVLSIKGINYEESNEIKEDKTNFLIGINNSEGVVDKYFTDNNLANDSHFENHDAHVVSVKGNVIAVLGKNTDSAFYGITSLKAIFNQLEGNELKELLIEDYSDGQWRGFIEGYYGIPWSNENRKDLMKFGGDFKMNSYIFAPKDDQYHSLKWREPYPAEKLAEIKEMVDVGIATKNKFIWTIHPFLKDGMNFGSEESYKADLEKIIAKFEQLYSVGVRQFGVLADDAEGEANNQVKLMEDLEKWRLQKGDVYEFIFVPKVYTKESAGGDVNNEYLKTIGTMPETIDIMWTGDVILGYVTQETFEFFEEAVGRQAFMWLNWPVNDINNKRLLMGKGEMLDPTVTNFKGIVTNPMQEAQASKVALFAIADYGWNRADFDMDKSWKDSFKYIEPDASEELYTFAKHMSDPAPNWHGLSLEESEELRPVIEEFTRKLWEKESVLDYSKVILDEYQEILDATNNFATKSKNELLKSEIKGWVDSLRDLAESTIAYINSAVAFEKGNYEEAMKYYVLGEDEYTASRSHRTPVINGQSRPEPGTRHLIPFIKDLSKIIGDNIDQVINPDTTKLTLRPYTNMSPLYWGHVQNIADGDNTRYSCMWIRNSAKEGDYVAVELNEVTKVNSITFEQGQDEGDAFNYGKFQYSMDGENWIDVDGVDYGPKMHKIVVEGLDITAKYLRFIPTKEILNNWIAVREFSVNKKDENNMKVNAYTNVEALAKNEVSISEEKATLSDLNDVTLSKGEYVGIKLNKLREVTNIVSDFTNNDNLTLETSINGVEWVEAKTLSETINARYVRIINNTEKDVTFNLNKLEAEYSNNDVNFDIRPTAEAKFEPKNLIDGKLNTAFKPLESAPKSGQLTYRISDKTDIKKFTIVQNPNTISNAIVSVRNENGWKEVGSLGKSFNEFNTEDFENVFEIKVEWDGFAPTIYEIGLSTIKEEVQVDKSKLEEAIKEVEKLKEEDYTKDSWSNLIEKLNLAKEVLSKEDATQDEVDNAIKALNEAISGLVKKDETEGPVDPEKPVDPENPDNTEKPENPEGTDKPQTPDKPEGNLPNTGGASSSIFLQLGVVMMASGAFVLKRKKR	failed
MRKLAAFLGLVGLLSLGLAQSAQEILDRVEKNLSTPWQATVQGRIQGPGGEEELLARVYALPQARLFRVEFLKPGSLEGNFTVITEKEVWNYLYLTNQLVISPREKAKIQGLGFAPQGLGDLKALSEQVDLRLEGEVRLPEGMAWKLVGRSKENQGFAAMELYILKADPRPLRFVFLDEKGKVLADLKVVEFKRTNLTEAQLKRYPKDAQVVRR	not failed
MRKNKLSFKEKAGAEQEECLCFCEGEASREAMFQAPIELPEGFVVDPAEAVANVTWNADSLSCVSDRCLIQTGPEPDEVGVQFAVRLQGTVTLLVSVSPVRNQYGQGDGAVSVIHNAEIDQVVYYSDESDDCPDISDITIENLVVVPPFYGSPLSVTGTIVLVPEPEPVYAFTANPNDQSVSVIDTNTDTVVTTIALPYNPAGIEITPDKSAVFVLHPNNNVISVIDYDTLTVTATILLDQPPRLIRFIPNHEFAYVFTGTAVYVIGIDTLTVDRSIPVEGYDVAIDPNGLFAYVLNFGIVQKVDLTTGEVTGTIERELIVSTIETNWPERYAYVLEQEFFFNYLTVIDLNTFTISSTQELEYEGEYRMFTSGAEVYLYDGFTGNLYSVSPNGAGVIGNVPQSATDYAFTPNGDFLYATRFIEQSIIVYNTDDYSEETVISLGVSPGAITILEHHHHHH	not failed
MRKRYVMTEQVQSGPRLDWLLDGLVDRIPEIRCAIVLSGDGLLIGKSKNLRRDDAEHLSAVGSGMHSLARGAARHFHGGEVQQTVIQMDRAFLFVTAAGRGARLAAIASEQVDVGMMAFEMGTLVKQVGQYLSAAPRVETPSAGHIQDA	failed
MRKSLKMTIGIGLILSCFGLILVGIGLSSGGIDKLQVKDDQAPKKEVQFDNIQSLDLDLSVRNIKIESSQDQHFKLTYYKKLDEEISHKVQHQKLNLKQKEKFRIHFFVLSDFFNWFHQDDTNTVTLAIPKNVQLKDVSIKNNVGDITIKNQQASKITVHQNTGNLNIYNSQIAKGKVSSDVGNIAIQNSSLSNIDVVDHTGDISAENLTVLNLVRMTNNIGNTNVSLSPQSAQATIVSTKTDVGHTDISHQLLQGYSGKNRLAVKGDTGNIQIK	failed
MRKVSISILFMLVSLTWGTTWLAMRIAVETIPPVFATGMRFMFAAPFLIIIAWLRKKTLLFPPGQRLFQFVICIFYFSIPFSLMIYGETYVNSGLAAIIFANMPVAVLIASVLFLNEKAKLMQIAGLTIAITALTGILLEEANTSTESHWQGITALISAVLIHAIIYTQCKKRSCTVSVITFNALPCLLAGLILSATGWFFERPQVSTFSVHSILATLYLGAFAGVFGILCYFALQQKANAFQASLVFLIFPLIAVSLEDYIYGYAISTHSMLLIIPLAIGIFLTLVARNIPVTSRCRDNSSQE	failed
MRKYLLIGVSAFVLGAGTMAYISPIAQANNAPKAQTYKLLELFGDVLGTVEDQYVTEVDDKKLIEAALDGMLTSLDPHSGYLAPDAFEDMQDTTRGEYGGLGLEVTSEEGVVKVISPMDGTPASRAGIQAGDYITAVNGQSVLGLTVNEAVKQMRGTAGEAVTLTIAREKTDPFDVKLVREVIKPKAAIARMEGDYGYVRLPGFNEKATDALASSVSELKSKNPKMKGLILDLRNNPGGLLDQAVGVADVFLDGGEVVSQRGRDPRNIQRYNARGGDMLNGLPMVVLINQGSASAAEIVAGALQDRKRAEVVGLTSFGKGSVQTVIPLRGGADGALKLTTARYFTPSGRSIQKTGIAPDLEVAQTRDQAQDIANRVWFSEASFKNALNADEGKSRVGAHTPAEAPPTGFDDKKGDFQLQRAIAVLQAGGVAKTPKLPKPAAKVAEVTAKAAAAAGGKTPVTEVK	failed
MRLAFWLYEGTALHGVSRVTNSMKGVHTVYHAPQGDDYITATYTMLERTPEFPKLSISVVRGQDLARGTSRLPGTVEQVDKHYKPELIVVAPSCSTALLQEDLGQMARASGVDQSKIMVYAVNPFRVAENEAAEGLFTELVRRFAAEQPKTEKPSVNLLGFTSLGFHLRSNLTSLRRMLKTLGIEVNVVAPWGAGIDDLKKLPAAWVNIAPFREIGCQAAGYLKEKFGMPSITEAPLGVNATLRWLRAIIAEVNKIGAEKGMAPMAMPELRDFSLDGQSAPSSVPWFARTADMESFSNKRAFVFGDATQVVGVTKFLKDELGMKIIGAGTYLPKQADWVREQLEGYLPGELMVTDKFQEVSAFIEEEMPELVCGTQMERHSCRKLDVPCMVISAPTHIENHLLGYYPFFGFDGADVMADRVYTSAKLGLEKHLIDFFGDAGLEYEAEEPEAFTEPTMSGNGTVASVSSAEAPSEAAVVTATATGELSWTAEAEKMLGKVPFFVRKKVRKNTDNYAREIGEPVVTADVFRKAKEHLGGLEHHHHHH	failed
MRLAGVGKSCLFAGRCAGIRPRRRLRWVLHFTATVPLNSMSSRRAFLRQCGLALAAAPALSSLPPWLSSADGFTSLRGGIGTFTQRGGTIGWLATDDGIAVVDTQSPQSAPDCWNGLRERSDSPLAMVINTHHHGDHVGGNGVFARHTDRLVAHANVPELMRAGAEDGAADEKTYPTETFQDTWSEPLGDETITLRYRGPAHTGGDAIVVFENANIVHVGDLVFNRAYPFIDVGGGADSQGWIDSLETIHGALDDDTIVIHGHGNPDFGVTGGREDLLVMRDFLSALNEYVTQQRQAGASLDEMKQTKVLDGFEAFNFDWALSLADCIEAVYREQTAG	failed
MRLDRNPWHWRIWVCIAVLALWPRAASADTITPERIADALSKLDALAQGAVADGGVPGLAIAVVHDDEVIFLRGFGHREAGKPEAVDADTVFQIASLSKPVSATVVAALVSDGIVSWDSKVADLDPAFRLADPYPTSQLTVRDLFSHRSGLPGTAGDDLEDIGYDRAEILHRLRFVPPSSSFRAGYSYSNFGLTEGAVAAAMPTGKSWEEVAQEKLYRPLGMASTSSRHSDFVKHADRAALHIKVDGAWAAKIERDPDAQAPAGGVSSTARDLSQWVRLILGNGVYAGKTLIAADALDQTHVPLMTRGKNPVSGGESFYGLGWNVEFGRHGLSWGHAGAFSVGARTLVTIFPQDKLGIVIIANAFPTGVPEGLSDSFADLVFDGSVQKDWVKAWDGIYAGMFGPVVEAAKATYAAPPSPARPARPASAYAGRYANDFFGDAVVASAGDGLVLKVGPHGARSYSLAHFDGDLFLTYPDAETPDRPTGVSFVVGPDGKASAMTIGFLDDNHLGTLRRVGD	failed
MRLGTFHKKKRFYINKIKINFLSFLFRNKINNQITDPAQVKSCLIIHDNNKLGDLIVLSSIYRELYSKGVKITLLTNRKGGEFLSNNKNIFEFCIKESTGFLEMLTLCKHLRDLQFDIVLDPFETMPSFKHSLILSSLKDSYILGFDHWYKRYYSFYHPHDECLKEHMSTRAIEILKHIYGEGKFSTNYDLHLPVDVEDKIKEFIGDTRIVIINPLGAKKICRLTFEQIKVIYQEVKTHFENYRIIFTGLPQDLLTIPILEIETLPFDEFIYTVALTKYSDFVISVDTALVHIAAAYHKPTLAFYPNSRTPEYPSHLIWSPNHHKSIQIVSPTYTVKDIDTETLTNSVKRLSCIDKK	failed
MRLINTTSSHPELVRNQLQNTDAKLVEVYSAGNTDVVFTKAPKHYELLISNKYRAIKDEELEAIREFFLKRKIDQSIIIQEQMKSLHTAKLIEISYPTTA	failed
MRLITNLLIIAILFSVPHVSIARIPEVVLSKKSAVVSIYVEDKQKIVAGGSGFIIDQNGIIVTNAHVIEPWNKSTTGILYVKKSDGTFLEPTEVIAADAVKDVALVRVKEQNLPFIKLTSNITPTQGDDVVVIGNPLGLETTVTDGIISAIRGEDGFLQISAPISQGSSGSPVLNSKGEAIGVATSIMAGGQNLNFAIPASYVTNLPTQEKAPPVKGLKKRAESPSGFETVTPEDIERDVVQIPEGAVHKGKVLFATDSGGYTYIRIEENGAPLWVAVTQTTISIGDIIEFPDSPPMTGFNSKSMNMTFDKITFAAGIRIVQRGNVEFKSPEEKHLYYAEQYSSMNNTPAAIEEISKAIELNPKKAEYYGKRANYYLQRRMYADSKSDEYQQIVASNRESCRNAVDDLNKAIAINPGNDVFYATQARIFTDSLFCDYANADKAIKLYETAIQLNPKKADYYVEKGWQHKIKNDFSKVLDCAKKALSISPNNEDAHYLYGSYYEENNKYDKALEYYTKGLSVSDNVTFGYFYIDGVMEKTKKYDDAVRIYTDLIKQHPKRLIFYNGRAEYYAKLKNYKKAIADYTTCIKLNPNSEYNYNLRANCYYEDGKKSEALTDYRTACDMKHAESCEMIPIVFADIKRGANWVPVAASSDVNYYYDKKGYTKNKNGVAVAWIRGEITDKEEYIKDIDISEYEKEKYKNVSHVMSRFEVDCPNQKLRVPISLIYAENGNVIRSYEDEKTKYSNIIPNSIGASIHENLCKGAPAKKIGKKK	failed
MRLLHTSDWHLGRSFHGVGMLDAQRNFVDQLVSLVQSKSVDVVLIAGDVYDRALPGLDVVKLLDDALVRITQAGAGVVLTSGNHDSAIRLGFASRLLERGGVHLRTKVEDIDVPVLFPLGGDENAKNSTLNGQVVVYGIPYLEPRLVAERLGAENANHFDVTLAAVERIRRDVEARRASGPVYPVVLAHTFASGGITSESERDLSIGGLGAVPLDLFDDFAYTALGHLHGRQELAPHVRYSGSPLAYSFSEAKHHKGAWLVDLDAGGVIAVEEVLWEAPKALATLRGTLDDLLGAEEHAWAENAYCQITLTDTQRPAQAMERVRTRFPDTLVLSFDPQGAAARTSTSYSNRLAEAEDDLGVCCGFLDHVRDRDASDAEEAALREALEAVRLQEAEL	failed
MRLLSSPINRGFFDYVELYPSLVSSYFPPPDRPSAVLSVGETRYVNSVKQTASLDSLNDYEEQFPPLTGGSKTKKFYLGSTNPSTPCQSSQLQNWTSGKDALSLQRNLGCKNRRRRRASRFLHEESNGTTFEVGAGIGSPTSMVHFDSTNPSSSSKSSQSQNLKIRKVRNHRNSGFKSRDQSPQRIKDPPPFDICSSVLERNDTSIKDWILADETNRETVEVSNKHKVIRPGMVLLKDFLTPDIQVDIVKTCRELGVKPTGFYQPGYSVGSKLHLQMMCLGRNWDPQTKYRKNTDIDSKAPEIPVTFNVLVEKAIREAHALIDRESGTEDAERILPVMSPDICIVNFYSETGRLGLHQDRDESEESIARGLPIVSFSIGDSAEFLYGEKRDVEEAQGVILESGDVLIFGGESRMIFHGVKSIIPNSAPMSLLNESKLRTGRLNLTFRHF	failed
